Experiment [1] deals with T1, recombinant human OX40-Fc (human, UniProt P43489 29-214).
T1 construct: also called rh-OX40-Fc; human OX40 hFC (R & D systems)
T1 sequence: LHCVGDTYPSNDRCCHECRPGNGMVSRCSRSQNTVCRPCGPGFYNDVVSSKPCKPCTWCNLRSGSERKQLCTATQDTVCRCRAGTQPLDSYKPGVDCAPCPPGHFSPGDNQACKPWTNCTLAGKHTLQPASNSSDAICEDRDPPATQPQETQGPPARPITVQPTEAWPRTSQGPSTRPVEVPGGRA
The experiment is described as follows: ELISA, OX40-Fc coated, VHH at 8 nM. Background: An ELISA detects its analyte on a solid surface through an enzyme-linked reagent.
Description: (§1) After four times washing with PBST, the plate was incubated with detecting antibody anti-his-HRP (1:4000 dilution) 100 μl per well for one hour with shaking at 60 rpm. The plate was developed with 100 μL of TMB per well in the dark and then stopped by 50 μL of stop solution per well. […] Data was analyzed using GraphPad Prisma 9.1.

In experiment [2] the target is T1, recombinant human OX40-Fc. The experiment is described as follows: ELISA, OX40-Fc coated, VHH at 1000 nM.
Description: as §1
Experiment [3] deals with T1, recombinant human OX40-Fc. The experiment is described as follows: ELISA, OX40-Fc coated, VHH at 0.064 nM.
Description: as §1
Experiment [4] has as its target T1, recombinant human OX40-Fc. The experiment is described as follows: ELISA, OX40-Fc coated, VHH at 0.32 nM.
Description: as §1
Experiment [5] addresses T1, recombinant human OX40-Fc. As to the kind of experiment: ELISA, OX40-Fc coated, VHH at 1.6 nM.
Description: as §1
The target of experiment [6] is T1, recombinant human OX40-Fc. The experiment is described as follows: ELISA, OX40-Fc coated, VHH at 0.0128 nM.
Description: as §1
For experiment [7], the target named is T1, recombinant human OX40-Fc. As to the kind of experiment: BLI, VHH-His on anti-His tips, OX40 hFc in solution.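 Further: kinetics recorded at 30 °C in PBS pH 7.2, with 200 s of association followed by dissociation monitored in PBS lacking the OX40 protein.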
Description: Bio-Layer Interferometry (BLI) kinetic binding analysis. […] Affinity measurements were performed with Gator equipped with Anti-Penta-His capture (HIS1K) biosensor tips. The assay was performed at 30° C. in 1×PBS buffer (Gibco®, PBS pH7.2). Samples were agitated at 1000 rpm. Prior to analysis, sensors were humidified for 15 min. Purified anti-OX40 VHH was tested for its binding capacity with HIS1K sensor tips. Tips were loaded using 20 μg/ml of anti-OX40 VHH. Loading proceeded for 300 s resulting in capture levels of between 1.8 and 2 nm. […] Association was initiated and monitored for 200 sec, after which tips were transferred to 1×PBS buffer without Factor protein (Gibco, PBS pH 7.2), in order to monitor dissociation. Sensor data was collected throughout the experiments, processed, and analyzed using the Gator data analysis software.
Experiment [8] deals with T1, recombinant human OX40-Fc. As to the kind of experiment: ELISA, OX40-Fc coated, VHH at 200 nM.
Description: as §1
For experiment [9], the target named is T1, recombinant human OX40-Fc. The experiment is described as follows: blocking ELISA, OX40-hFc premixed with VHH on coated OX40L-mFc; full blocker; full blocker.
Description: (§2) Blocking Assay. The 96-well plate was coated with 100 μL of 1 μg/mL OX40L-mFc prepared in antigen coating buffer overnight at 4° C., then blocked with 2% BSA for 1 hour at 25° C. […] The plate was washed with PBST four times, then incubated with Mouse anti-human IgG Fc-HRP at 25° C. for 1 hour. After four times of wash with PBST, the plate was developed with 100 μL of TMB per well for 10 to 20 min in the dark and then stopped by adding 50 μL of Stop Solution.
Experiment [10] addresses T1, recombinant human OX40-Fc. As to the kind of experiment: ELISA, OX40-Fc coated, VHH at 40 nM.
Description: as §1
In another experiment the target is T2, Human 41BB antigen (BLI) (human, UniProt Q07011 24-183).
T2 construct: also called 41BB protein
The experiment is described as follows: BLI, VHH-His on anti-His tips, human 41BB in solution.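 Further: association tracked for 200 s, after which dissociation was followed in 1×PBS free of 41BB protein.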 For orientation: In BLI a coated tip is dipped into the sample, and binding shifts an interference pattern.

For a further experiment, the target named is T3, 4-1BB Fc (human, UniProt Q07011 24-183).
T3 construct: also called rh-41BB; 41BB-hFc
The experiment is described as follows: blocking ELISA: 41BBL-mFc (1.m32) coated, VHH premixed with 41BB-hFc, bound 41BB-hFc detected with anti-human IgG Fc-HRP, OD450.

Experiment [11] addresses T1, recombinant human OX40-Fc. As to the kind of experiment: blocking ELISA, OX40-hFc premixed with VHH on coated OX40L-mFc; partial blocker; partial blocker.
Description: as §2
Experiment [12] deals with T4, recombinant human CD40-Fc (human, UniProt P25942 21-193).
T4 construct: also called rh-CD40-Fc; CD40-hFc
The experiment is described as follows: ELISA, CD40-Fc coated, VHH at 40 nM.
Description: (§3) After four times washing with PBST, the plate was incubated with detecting antibody anti-his-HRP (1:4000 dilution) 100 μl per well for one hour with shaking at 60 rpm. The plate was developed with 100 μL of TMB per well in the dark and then stopped by 50 μL of stop solution per well.

In experiment [13] the target is T4, recombinant human CD40-Fc. The experiment is described as follows: ELISA, CD40-Fc coated, VHH at 0.013 nM.
Description: as §3
The target of experiment [14] is T4, recombinant human CD40-Fc. As to the kind of experiment: ELISA, CD40-Fc coated, VHH at 1.6 nM.
Description: as §3
In experiment [15] the target is T5, Human CD40 antigen (recombinant, BLI) (human, UniProt P25942 21-193).
T5 construct: also called rh-CD40
The experiment is described as follows: BLI, VHH-His on anti-His tips, human CD40 in solution.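 Further: kinetics measured at 30 °C in PBS pH 7.2, association tracked for 200 s, then dissociation followed in PBS lacking CD40.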
Description: Bio-Layer Interferometry (BLI) kinetic binding analysis. […] Affinity measurements were performed with Gator equipped with Anti-Penta-His capture (HIS1K) biosensor tips. The assay was performed at 30° C. in 1×PBS buffer (Gibco®, PBS pH7.2). Samples were agitated at 1000 rpm. Prior to analysis, sensors were humidified for 15 min. […] Sensor data was collected throughout the experiments, processed, and analyzed using the Gator data analysis software.
Briefly, purified anti-CD40 VHH was tested for its binding capacity with HIS1K sensor tips. Tips were loaded using 20 μg/ml of anti-CD40 VHH. Loading proceeded for 300 sec resulting in capture levels of between 1.8 and 2 nm. […] Association was initiated and monitored for 200 sec, after which tips were transferred to 1×PBS buffer without CD40 protein in order to monitor dissociation.

Experiment [16] deals with T4, recombinant human CD40-Fc. As to the kind of experiment: ELISA, CD40-Fc coated, VHH at 0.32 nM.
Description: as §3
In experiment [17] the target is T4, recombinant human CD40-Fc. The experiment is described as follows: blocking ELISA: CD40L-mFc (1.m18) coated, VHH premixed with CD40-hFc, bound CD40-hFc detected with anti-human IgG Fc-HRP, OD450.
Description: The 96-well plate was coated with 100 μL of 1 μg/mL CD40L-mFc prepared in antigen coating buffer overnight at 4° C., then blocked with 2% BSA for 1 hour at 25° C. […] The plate was washed with PBST four times, then incubated with Mouse anti-human IgG Fc-HRP at 25° C. for 1 hour. After four times of wash with PBST, the plate was developed with 100 μL of TMB per well for 10 to 20 min in the dark and then stopped by adding 50 μL of Stop Solution.
Experiment [18] has as its target T4, recombinant human CD40-Fc. The experiment is described as follows: ELISA, CD40-Fc coated, VHH at 200 nM.
Description: as §3
The target of experiment [19] is T4, recombinant human CD40-Fc. As to the kind of experiment: ELISA, CD40-Fc coated, VHH at 0.0026 nM.
Description: as §3
Experiment [20] addresses T4, recombinant human CD40-Fc. As to the kind of experiment: ELISA, CD40-Fc coated, VHH at 1000 nM.
Description: as §3
Experiment [21] has as its target T4, recombinant human CD40-Fc. The experiment is described as follows: ELISA, CD40-Fc coated, VHH at 8 nM.
Description: as §3
Experiment [22] deals with T4, recombinant human CD40-Fc. As to the kind of experiment: ELISA, CD40-Fc coated, VHH at 0.064 nM.
Description: as §3
For experiment [23], the target named is T6, murine serum albumin (murine, UniProt P07724 25-608).
T6 construct: As antigen 'MSA' means murine serum albumin; the VHHs also carry the label MSA; also called MSA
The experiment is described as follows: BLI (Gator), His-tagged VHH on anti-His sensor, murine serum albumin 100 nM in solution.
Description: (§4) Kinetic binding analysis of MSA VHHs were performed with Gator Prime system equipped with analyze software. […] The experiments were done at 30° C. Prior to analysis, sensors were socked in Q buffer for 600 sec with shaking at 1000 rpm, and then 2 μM of HIS tagged MSA VHHs were loaded to Anti-His sensors with shaking at 400 rpm for 120 sec. Loaded sensors were transferred into Q buffer for 60 sec. Association of HSA or MSA at 100 nM was initiated and monitored for 120-180 sec with shaking at 1000 rpm, and finally dissociation in Q buffer for 120-180 sec with 1000 rpm shaking. Software V2.0 (Gator Bio) was used for data analysis. The on-rate (Kₒₙ) and off-rate (Kd) were determined by fitting of the association and dissociation phases of each sample. The mathematical model used assumes a 1:1 stoichiometry, fitting only one analyte in solution binding to one binding site on the surface. The equilibrium dissociation constant (KD), a measure for affinity, was then calculated as the ratio of Kd and Kₒₙ.

For experiment [24], the target named is T7, human serum albumin (human, UniProt P02768 25-609).
T7 construct: also called HSA
The experiment is described as follows: BLI (Gator), His-tagged VHH on anti-His sensor, HSA 100 nM in solution.
Description: as §4

For experiment [25], the target named is T6, murine serum albumin. The experiment is described as follows: ELISA, murine serum albumin coated, VHH 0.128 nM.
Description: The 96-well plate was coated with 100 μL per well of HSA or MSA (murine serum albumin) prepared at 1 μg/ml in coating buffer at 4° C. overnight, then blocked with 200 μL per well of casein for one hour at room temperature. MSA VHHs were made into a series of dilutions and added to HSA or MSA coated plate for one hour incubation. The plate was washed with PBST four times, then incubated with Streptavidin conjugated with HRP at 25° C. for 1 hour. After three times of wash with 250 μL PBST per well, the plate was developed with 100 μL of TMB per well for 10 to 20 min in the dark and then stopped by adding 100 μL of Stop Solution.
The target of experiment [26] is T7, human serum albumin. The experiment is described as follows: BLI (Gator), His-tagged VHH on anti-His sensor, HSA 100 nM in solution. The source holds these as a separate data set.
Description: as §4
In experiment [27] the target is T6, murine serum albumin. As to the kind of experiment: BLI (Gator), His-tagged VHH on anti-His sensor, murine serum albumin 100 nM in solution. The source holds these as a separate data set.
Description: as §4

Like-named read-outs stand apart in the source and are kept apart here.

T2 sequence (Q07011 24-183 limits assumed): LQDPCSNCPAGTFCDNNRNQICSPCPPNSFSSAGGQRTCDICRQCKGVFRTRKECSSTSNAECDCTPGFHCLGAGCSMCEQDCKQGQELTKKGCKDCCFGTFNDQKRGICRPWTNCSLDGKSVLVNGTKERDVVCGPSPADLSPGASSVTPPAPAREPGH
T4 sequence (P25942 21-193): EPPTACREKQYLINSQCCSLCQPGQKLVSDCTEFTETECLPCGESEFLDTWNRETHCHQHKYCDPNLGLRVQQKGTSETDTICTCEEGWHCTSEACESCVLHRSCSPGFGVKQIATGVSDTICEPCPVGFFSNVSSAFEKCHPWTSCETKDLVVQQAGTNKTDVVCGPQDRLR
T5 sequence (P25942 21-193 limits assumed): as the sequence (P25942 21-193) above
T3 sequence (Q07011 24-183): as the sequence (Q07011 24-183 limits assumed) above
Description for 4-1BB Fc: The 96-well plate was coated with 100 μL of 1 μg/mL 41BBL-mFc prepared in antigen coating buffer overnight at 4° C., then blocked with 2% BSA for 1 hour at 25° C. […] The plate was washed with PBST four times, then incubated with Mouse anti-human IgG Fc-HRP at 25° C. for 1 hour. After four times of wash with PBST, the plate was developed with 100 μL of TMB per well for 10 to 20 min in the dark and then stopped by adding 50 μL of Stop Solution.
Description for Human 41BB antigen (BLI): Tips were loaded using 20 μg/ml of anti-41BB VHH. Loading proceeded for 300 sec resulting in capture levels of between 1.8 and 2 nm. […] Association was initiated and monitored for 200 sec, after which tips were transferred to 1×PBS buffer without 41BB protein, in order to monitor dissociation.

B1: pgXX88-SZ-15 (VHH, not shown: small tags and cut ends)
VHH: QVQLVESGGGLVQPGGSLRLSCSPSEGAFKMLTTGWFRQVLGKEREFVSAISWGGGATYYADSVKGRFTVSRDNAKNTVYLQMNSLKPEDTAVYYCAVDTGNGVATNIRSQSRYDYWGQGTQVTVSS
Regarding B1, the OD450 worked out at 1.89 in experiment [1]; 2.12 in [2]; 0.166 in [3]; 0.736 in experiment [4]; 1.66 in experiment [5]; 0.068 in experiment [6]. In addition, the OD450 worked out at 1.94 in [8] and 1.95 in experiment [10]. For the same molecule, the Kd (usually the free concentration of one partner at which half of the binding sites on the other are occupied at equilibrium, for simple one-to-one binding) in [7] was found to be 0.48 nM. For the same molecule, the koff (commonly a measure of how fast the partners let go of each other) in experiment [7] was 0.000259 s⁻¹. For the same molecule, the kon – broadly, a measure of how fast the partners come together – in experiment [7] was found to be 539000 M⁻¹ s⁻¹. Moreover, the 50% effective concentration (EC50) – broadly, the concentration that produces a half-maximal response – in experiment [9] was determined as 0.12 nM.

B2: 4-1BB-59 (VHH, not shown: small tags and cut ends)
VHH: EVQLVESGGGLVQPGESLRLSCAASGDTVSGYVMLWWRQAPGKERELVAAISSVGYTYYTDSVKGRFTISRDNAKNTVYLQMNSLKPEDTAVYYCAADPASISTRSAYWGQGTQVTVSS
Turning to B2, in the experiment with Human 41BB antigen (BLI), the Kd is 2.35 nM, the koff worked out at 0.00121 s⁻¹ and the kon is 512000 M⁻¹ s⁻¹. Besides, in the experiment with 4-1BB Fc, the “IC50 (read off the curve)” value was roughly 0.5 nM.

B3: pgXX88-SZ-4 (VHH, not shown: small tags and cut ends)
VHH: QVQLVESGGGLAQPGSSLRLSCTASGTVFSILSATWFRQAPGKAHEARELVAFISSDGVSMHADSVKGRFTISRDNAASTVYLQMDNLQPEDTAVYFCKLSNSMMSLEYWGRGTQVTVSS
notes: also called ppXX88-SZ-4
B3: the EC50 in [11] was determined as 1.98 nM. Moreover, the OD450 in [1] came to 1.12; in [2], 1.78; in experiment [3], 0.076; in experiment [4], 0.126; in experiment [5], 0.463; in [6] it was 0.062. The OD450 in [8] worked out at 1.58; in [10], 1.49. Also, the Kd in experiment [7] was 0.185 nM. Besides, the koff in experiment [7] worked out at 8.73e-05 s⁻¹. Moreover, the kon in experiment [7] was 472000 M⁻¹ s⁻¹.

B4: pgDD40-HZ-24 (VHH, not shown: small tags and cut ends)
VHH: EVQLVESGGGSVQAGGSLRLSCAASLSTFSNYRMGWFRRAPGKERELVARIEPHGVVDYGDSVKGRFTISRDNAKNTVTVYLHMNSLKPEDTAVYYCNALRLISGRYDPLFSSWGQGTQVTVSS
notes: also called pgDD40-HG-24
In the case of B4, the OD450 in experiment [12] amounted to 1.71; in experiment [13] it was 0.055; in [14], 0.903; in experiment [16], 0.251; in experiment [18], 1.84; in experiment [19] it was 0.078. Also, the OD450 in experiment [20] turned out to be 1.81; in experiment [21], 1.7; in experiment [22], 0.084. In addition, the Kd in experiment [15] is less than 0.001 nM. For the same molecule, the koff in [15] stood at 1e-05 s⁻¹. Besides, the kon in experiment [15] stood at 607000 M⁻¹ s⁻¹. In addition, the “IC50 (read off the curve)” value in experiment [17] was roughly 20 nM.

B5: MSA4 (VHH)
VHH: EVQLVEFGGGLVQAGGSLRLSCAASGRTDSAYRMGWFRQAPGKEREFVSAINWSDGRTVYLDSVKGRFTISRDNAKNMVYLQMNSLKPEDTAVYYCAADPDSRLYYTVPQNYDYWGQGTQVTVSS
notes: Llama single domain antibody with C-terminal His-tag, made in HEK293; not shown: C-terminal His-tag
With B5, the Kd with murine serum albumin [23] is 8.83 nM; in the experiment with human serum albumin [24], 11.3 nM; with human serum albumin [26], 7.16 nM; in the experiment with murine serum albumin [27] it was 4.49 nM. In addition, the koff with murine serum albumin [23] stood at 0.0011 s⁻¹; in the experiment with human serum albumin [24], 0.00101 s⁻¹; with human serum albumin [26], 0.000752 s⁻¹; in the experiment with murine serum albumin [27], 0.000644 s⁻¹. For the same molecule, the kon with murine serum albumin [23] was determined as 125000 M⁻¹ s⁻¹; with human serum albumin [24], 89600 M⁻¹ s⁻¹; in the experiment with human serum albumin [26], 105000 M⁻¹ s⁻¹; with murine serum albumin [27] it was 143000 M⁻¹ s⁻¹. In addition, in the experiment with murine serum albumin [25], the “ELISA OD450” value stood at 0.07.

Values taken from patent US20250376535A1 (BEIJING STARMAB BIOMED TECHNOLOGY, published 2025).
